# Laboratory results as given in PMC6517398, “Selection of a novel DNA aptamer against OFA/iLRP for targeted delivery of doxorubicin to AML cells”.
# T1: OFA/iLRP extracellular epitope peptide (UniProt P08865)
# T1 chain: NQIQAAFREPR
# Target: T1, OFA/iLRP extracellular epitope peptide
# Test: flow cytometry of coated beads; PBS (pH not stated), 200 uL, 30 min, room temperature; 2x10^5 coated beads with 20-40 pmol FAM-ssDNA (cells: 40-60 pmol); washed once or twice with PBS
# Details: label: FAM (5' in selection primer); single strand, 59 nt
binder,measurement,value
AB3 (ssDNA) DNA: TGCGTGTGTAGTGTGTCTGTTGTTTGTATTGTTGTCTATCCTCTTAGGGATTTGGGCGG,Kd,101 nM
